1 substance from publication PMC7060540 can be followed below.

The target of the assay is HIS-CbuHMGA (Catalpa bungei). Kind of assay: BLI; Octet QK (Forte-Bio); GST-CbuSPL9 at 2381, 1191, 595.3, 297.6 and 148.8 nM on HIS-CbuHMGA; which protein was immobilised, buffer and temperature not told.

GST-CbuSPL9 (natural protein) came in with a dissociation constant Kd of 311 nM.
